# In patent US20220195455:
# B1: N-myristoyltransferase 1, full length (protein)
# chain: MADESETAVKPPAPPLPQMMEGNGNGHEHCSDCENEEDNSYNRGGLSPANDTGAKKKKKKQKKKKEKGSETDSAQDQPVKMNSLPAERIQEIQKAIELFSVGQGPAKTMEEASKRSYQFWDTQPVPKLGEVVNTHGPVEPDKDNIRQEPYTLPQGFTWDALDLGDRGVLKELYTLLNENYVEDDDNMFRFDYSPEFLLWALRPPGWLPQWHCGVRVVSSRKLVGFISAIPANIHIYDTEKKMVEINFLCVHKKLRSKRVAPVLIREITRRVHLEGIFQAVYTAGVVLPKPVGTCRYWHRSLNPRKLIEVKFSHLSRNMTMQRTMKLYRLPETPKTAGLRPMETKDIPVVHQLLTRYLKQFHLTPVMSQEEVEHWFYPQENIIDTFVVENANGEVTDFLSFYTLPSTIMNHPTHKSLKAAYSFYNVHTQTPLLDLMSDALVLAKMKGFDVFNALDLMENKTFLEKLKFGIGDGNLQYYLYNWKCPSMGAEKVGLVLQ
# Tests used:
# [1] = biological target: T1, ARF6 octapeptide GKVLSKIF
# T1 chain: GKVLSKIF
# [2] = biological target: T2, ARL2 octapeptide GLLTILKK
# T2 chain: GLLTILKK
# [3] = biological target: T3, ARL6 octapeptide GLLDRLSV
# T3 chain: GLLDRLSV
# [4] = biological target: T4, DDX46 octapeptide GRESRHYR
# T4 chain: GRESRHYR
# [5] = biological target: T5, DEGS1 octapeptide GSRVSRED
# T5 chain: GSRVSRED
# [6] = biological target: T6, FRS2 octapeptide GSCCSCPD
# T6 chain: GSCCSCPD
# FYN octapeptide GCVQCKDK = biological target: T7, FYN octapeptide GCVQCKDK
# T7 chain: GCVQCKDK
# [7] = biological target: T8, GNAZ octapeptide GCRQSSEE
# T8 chain: GCRQSSEE
# [8] = biological target: T9, LANCL2 octapeptide GETMSKRL
# T9 chain: GETMSKRL
# LNP octapeptide GGLFSRWR = biological target: T10, LNP octapeptide GGLFSRWR
# T10 chain: GGLFSRWR
# LYN octapeptide GCIKSKGK = biological target: T11, LYN octapeptide GCIKSKGK
# T11 chain: GCIKSKGK
# [9] = biological target: T12, MARCKS octapeptide GAQFSKTA
# T12 chain: GAQFSKTA
# [10] = biological target: T13, MARCKSL1 octapeptide GSQSSKAP
# T13 chain: GSQSSKAP
# [11] = biological target: T14, NAA40 octapeptide GRKSSKAK
# T14 chain: GRKSSKAK
# [12] = biological target: T15, NDUFAF4 octapeptide GALVIRGI
# T15 chain: GALVIRGI
# [13] = biological target: T16, NDUFB7 octapeptide GAHLVRRY
# T16 chain: GAHLVRRY
# [14] = biological target: T17, NOL3 octapeptide GNAQERPS
# T17 chain: GNAQERPS
# [15] = biological target: T18, PSMC1 octapeptide GQSQSGGH
# T18 chain: GQSQSGGH
# [16] = biological target: T19, REP15 octapeptide GQKASQQL
# T19 chain: GQKASQQL
# [17] = biological target: T20, RNF11 octapeptide GNCLKSPT
# T20 chain: GNCLKSPT
# RP2 octapeptide GCFFSKRR = biological target: T21, RP2 octapeptide GCFFSKRR
# T21 chain: GCFFSKRR
# [18] = biological target: T22, SCYL3 octapeptide GSENSALK
# T22 chain: GSENSALK
# [19] = biological target: T23, Src8(G2A) mutant octapeptide Ala-Ser-Asn-Lys-Ser-Lys-Pro-Lys
# T23 chain: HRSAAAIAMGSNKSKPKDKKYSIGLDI
# [20] = biological target: T24, YES1 octapeptide GCIKSKEN
# T24 chain: GCIKSKEN
# [21] = biological target: T25, ZNRF2 octapeptide GAKQSGPA
# T25 chain: GAKQSGPA
protein,measurement,setting,value
B1,Km,[1],4.4 µM
same,Vmax,[1],13.6 µM/min
same,Km,[2],0.4 µM
same,Vmax,[2],1.2 µM/min
same,Km,[3],< 0.1 µM
same,Vmax,[3],1.8 µM/min
same,Km,[4],< 0.1 µM
same,Vmax,[4],2 µM/min
same,Km,[5],79.2 µM
same,Vmax,[5],12.9 µM/min
same,Km,[6],28.2 µM
same,Vmax,[6],54.7 µM/min
same,Km,FYN octapeptide GCVQCKDK,5.2 µM
same,Vmax,FYN octapeptide GCVQCKDK,54.9 µM/min
same,Km,[7],15.7 µM
same,Vmax,[7],64.4 µM/min
same,Km,[8],13 µM
same,Vmax,[8],5.3 µM/min
same,Km,LNP octapeptide GGLFSRWR,10.3 µM
same,Vmax,LNP octapeptide GGLFSRWR,21.9 µM/min
same,Km,LYN octapeptide GCIKSKGK,22.5 µM
same,Vmax,LYN octapeptide GCIKSKGK,64.7 µM/min
same,Km,[9],38.4 µM
same,Vmax,[9],6.4 µM/min
same,Km,[10],11.7 µM
same,Vmax,[10],6.6 µM/min
same,Km,[11],1.2 µM
same,Vmax,[11],1.8 µM/min
same,Km,[12],0.5 µM
same,Vmax,[12],1.2 µM/min
same,Km,[13],16.4 µM
same,Vmax,[13],2.8 µM/min
same,Km,[14],1.4 µM
same,Vmax,[14],2 µM/min
same,Km,[15],40 µM
same,Vmax,[15],9.6 µM/min
same,Km,[16],15.7 µM
same,Vmax,[16],3.4 µM/min
same,Km,[17],16.7 µM
same,Vmax,[17],61.1 µM/min
same,Km,RP2 octapeptide GCFFSKRR,13.6 µM
same,Vmax,RP2 octapeptide GCFFSKRR,60.8 µM/min
same,Km,[18],0.8 µM
same,Vmax,[18],1.7 µM/min
same,Km,[19],< 0.1 µM
same,Vmax,[19],1 µM/min
same,Km,[20],14.4 µM
same,Vmax,[20],61 µM/min
same,Km,[21],2 µM
same,Vmax,[21],1.6 µM/min
